Molecular target: the molecule itself
Test: differential scanning calorimetry

B1: PSD95-PDZ3 wild type (third PDZ domain of postsynaptic density-95 protein) (domain or fragment)
chain: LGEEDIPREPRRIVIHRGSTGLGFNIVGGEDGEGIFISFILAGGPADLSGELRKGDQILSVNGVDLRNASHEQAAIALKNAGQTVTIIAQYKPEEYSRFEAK
In the case of B1, the “stoichiometry N” value is reported as 6.
